Columns and labels:
[1] = target: hemagglutinin (HA) of influenza A/Brisbane/10/07 (H3N2) (influenza A virus A/Brisbane/10/07 (H3N2)); experiment: cell-based or functional assay
[2] = target: hemagglutinin (HA) of influenza A/Vietnam/1194/04 (H5N1) (influenza A virus A/Vietnam/1194/04 (H5N1)); experiment: cell-based or functional assay
[3] = target: hemagglutinin (HA) of influenza A/New Caledonia/20/99 (H1N1) (influenza A virus A/New Caledonia/20/99 (H1N1)); experiment: cell-based or functional assay
[4] = target: hemagglutinin (HA) of influenza B/Harbin/7/94 (Yamagata lineage) (influenza B virus B/Harbin/7/94); experiment: cell-based or functional assay
[5] = target: hemagglutinin (HA) of influenza B/Brisbane/60/08 (Victoria lineage) (influenza B virus B/Brisbane/60/08); experiment: cell-based or functional assay
[6] = target: HA of H1N1 A/New Caledonia/20/1999 (influenza A virus); experiment: cell-based or functional assay
[7] = target: HA of H5N1 A/Vietnam/1194/04 (influenza A virus); experiment: cell-based or functional assay
[8] = target: HA of H3N2 A/HK/1/68-MA (influenza A virus); experiment: cell-based or functional assay
[9] = target: HA of H3N2 A/Brisbane/10/2007 (influenza A virus); experiment: cell-based or functional assay
[10] = target: HA of H1N1 A/Brisbane/59/07 (influenza A virus); experiment: cell-based or functional assay
[11] = target: HA of H7N3 A/NIBRG/60 (A/mallard/NL/12/00) (influenza A virus); experiment: cell-based or functional assay
[12] = target: HA of H1N1 A/Puerto Rico/8/34-MA (influenza A virus); experiment: cell-based or functional assay
[13] = target: HA of H3N2 A/Brisbane/10/2007 (influenza A virus); experiment: BLI steady state
[14] = target: HA of H7N3 A/NIBRG/60 (A/mallard/NL/12/00) (influenza A virus); experiment: BLI steady state
[15] = target: HA of B/Brisbane/60/2008 (Victoria) (influenza B virus); experiment: cell-based or functional assay
[16] = target: HA of B/Florida/04/2006 (Yamagata) (influenza B virus); experiment: cell-based or functional assay
[17] = target: HA of B/Florida/04/2006 (Yamagata) (influenza B virus); experiment: AlphaLISA competition vs CR8033
[18] = target: HA of B/Harbin/7/94 (Yamagata) (influenza B virus); experiment: cell-based or functional assay
[19] = target: HA of B/Malaysia/2506/04 (Victoria) (influenza B virus); experiment: cell-based or functional assay
[20] = target: HA of B/Lee/40 (influenza B virus) (UniProt P03460); experiment: cell-based or functional assay
[21] = target: hemagglutinin (HA) of influenza virus H14N5 A/Mallard/Astrakhan/263/1982 (influenza A virus); experiment: cell-based or functional assay
[22] = target: hemagglutinin (HA) of influenza virus H3N2 A/Wisconsin/67/05 (influenza A virus); experiment: cell-based or functional assay
[23] = target: hemagglutinin (HA) of influenza virus H7N9 A/Anhui/1/13 (influenza A virus); experiment: cell-based or functional assay
[24] = target: hemagglutinin (HA) of influenza virus H1N1 A/California/07/09 (influenza A virus); experiment: cell-based or functional assay
[25] = target: hemagglutinin (HA) of influenza virus H1N1 A/Solomon Islands/3/2006 (IVR 145) (influenza A virus); experiment: cell-based or functional assay
[26] = target: hemagglutinin (HA) of influenza virus B/Lee/40 (Old) (influenza B virus) (UniProt P03460); experiment: cell-based or functional assay
[27] = target: hemagglutinin (HA) of influenza virus B/Massachusetts/02/12 (Yamagata) (influenza B virus); experiment: cell-based or functional assay
[28] = target: hemagglutinin (HA) of influenza virus B/Harbin/7/94 (Yamagata) (influenza B virus); experiment: cell-based or functional assay
[29] = target: hemagglutinin (HA) of influenza virus H1N1 A/WSN/33 (influenza A virus) (UniProt P03454); experiment: cell-based or functional assay
[30] = target: hemagglutinin (HA) of influenza virus H3N2 A/Johannesburg/33/94 (influenza A virus); experiment: cell-based or functional assay
[31] = target: hemagglutinin (HA) of influenza virus B/Florida/04/06 (Yamagata) (influenza B virus); experiment: cell-based or functional assay
[32] = target: hemagglutinin (HA) of influenza virus B/Brisbane/60/08 (Victoria) (influenza B virus); experiment: cell-based or functional assay
[33] = target: hemagglutinin (HA) of influenza virus H3N2 A/Hiroshima/52/05 (influenza A virus); experiment: cell-based or functional assay
[34] = target: hemagglutinin (HA) of influenza virus B/Malaysia/2506/04 (Victoria) (influenza B virus); experiment: cell-based or functional assay
[35] = target: hemagglutinin (HA) of influenza virus H1N1 A/Christchurch/16/10 (influenza A virus); experiment: cell-based or functional assay
[36] = target: hemagglutinin (HA) of influenza virus H10N7 A/Chick/Germany/N/49 (influenza A virus); experiment: cell-based or functional assay
[37] = target: hemagglutinin (HA) of influenza virus H1N1 A/Mississippi/03/01 274H (influenza A virus); experiment: cell-based or functional assay
[38] = target: hemagglutinin (HA) of influenza virus H3N2 A/Perth/16/09 (influenza A virus); experiment: cell-based or functional assay
[39] = target: hemagglutinin (HA) of influenza virus H4 A/WF/HK/MPA892/06 (influenza A virus); experiment: cell-based or functional assay
[40] = target: hemagglutinin (HA) of influenza virus H2N2 A/Guiyang/1/57 (influenza A virus); experiment: cell-based or functional assay
[41] = target: hemagglutinin (HA) of influenza virus H6N1 A/Eurasian Wigeon/MPG1884/09 (influenza A virus); experiment: cell-based or functional assay
[42] = target: hemagglutinin (HA) of influenza virus H3N2 A/HK/1/68-MA (influenza A virus); experiment: cell-based or functional assay
[43] = target: hemagglutinin (HA) of influenza virus H7N3 A/NIBRG/60 (A/mallard/Netherlands/12/00) (influenza A virus); experiment: cell-based or functional assay
[44] = target: hemagglutinin (HA) of influenza virus H3N2 A/Brisbane/10/07 (influenza A virus); experiment: cell-based or functional assay
[45] = target: hemagglutinin (HA) of influenza virus H1N1 A/Brisbane/59/07 (influenza A virus); experiment: cell-based or functional assay
[46] = target: hemagglutinin (HA) of influenza virus H1N1 A/Puerto Rico/8/34-MA (influenza A virus); experiment: cell-based or functional assay
[47] = target: hemagglutinin (HA) of influenza virus H3N2 A/Aichi/2/68 (influenza A virus) (UniProt P03437); experiment: cell-based or functional assay
[48] = target: hemagglutinin (HA) of influenza virus H1N1 A/New Caledonia/20/99 (influenza A virus); experiment: cell-based or functional assay
[49] = target: hemagglutinin (HA) of influenza virus H7N7 A/PR8 H7N7-NY (influenza A virus); experiment: cell-based or functional assay
[50] = target: hemagglutinin (HA) of influenza virus H8N4 A/Eurasian Wigeon/MPH571/08 (influenza A virus); experiment: cell-based or functional assay
[51] = target: hemagglutinin (HA) of influenza virus H11N9 A/Northern Pintail/MPC2085/07 (influenza A virus); experiment: cell-based or functional assay
[52] = target: hemagglutinin (HA) of influenza virus H3N2 A/Panama/2007/99 (influenza A virus); experiment: cell-based or functional assay
[53] = target: hemagglutinin (HA) of influenza virus H3N2 A/Victoria/210/09 (influenza A virus); experiment: cell-based or functional assay
[54] = target: hemagglutinin (HA) of influenza virus H5N1 A/PR8 H5N1 HK97 (influenza A virus); experiment: cell-based or functional assay
[55] = target: hemagglutinin (HA) of influenza virus H9N2 A/HK/466419/09 (influenza A virus); experiment: cell-based or functional assay
[56] = target: hemagglutinin (HA) of influenza virus H5N1 A/Vietnam/1194/04 (influenza A virus); experiment: cell-based or functional assay
[57] = target: hemagglutinin (HA) of influenza virus H7N9 A/Shanghai/2/13 (influenza A virus); experiment: cell-based or functional assay
[58] = target: hemagglutinin (HA) of influenza virus H3N2 A/Fukui/45/04 (influenza A virus); experiment: cell-based or functional assay

TIFGIRVNTMG (Fc fusion) [FM1W3] showed an Average neutralization titers [1] of 16 nM, an Average neutralization titers [2] of 10 nM and an Average neutralization titers [3] of 6 nM. It also gave an Average neutralization titers [4] of 8 nM and an Average neutralization titers [5] of 16 nM.

B1: SD1025 (VHH)
VHH: EVQLVESGGGLVQAGGSLRLSCAASGRTYAMAWFRQAPGKEREFVAHINALGTRTYYSDSVQGRFTISRDNAKNTEYLQMNSLKPEDTAVYYCAAGGQWRAAPVADAAQYDFWGQGTQVTVSS
With B1 the VNA titer [6] was over 1000 nM, the VNA titer [7] was over 1000 nM and the VNA titer [8] was over 1000 nM. It also gave a VNA titer [9] of over 1000 nM, a VNA titer [10] of over 1000 nM and a VNA titer [11] of 52 nM. It also gave a VNA titer [12] of over 1000 nM.

B2: SD1048 (VHH)
VHH: EVQLVESGGGVVQPGGSLRLSCVASGRTSSMYSIGWFRQAPGKEREFVAVIGWYSGRTFYTDSMKGRFTISRDNARNTVYLQMNSLKPEDTAVYYCAAANGPLRLSNQADYWGQGTQVTVSS
In the case of B2, the Kd [13] is reported as 3 nM, the Kd [14] is reported as 3 nM and the VNA titer [6] is reported as over 1000 nM. It also gave a VNA titer [15] of over 1000 nM, a VNA titer [7] of over 1000 nM and a VNA titer [9] of 19.5 nM. For the same binder, the VNA titer [10] was over 1000 nM, the VNA titer [11] was 20.6 nM and the VNA titer [16] was over 1000 nM.

B3: SD1085 (VHH)
VHH: EVQLVESGGGLVQAGDSLRLSCVISGLSLDTYAVGWFRQAPGKEREGITCISSGHGMTYYADSVKGRFTVSTDNAKNTVYLQMNGLQPEDTARYYCATESRYYCSDNWPAPQRYIYWGQGTQVTVSS
B3 gave a pIC50 [17] of under 7, a VNA titer [15] of 40.7 nM and a VNA titer [18] of 631 nM. The VNA titer [16] was 187 nM and the VNA titer [19] was 66.3 nM.

B4: SD2086 (VHH)
VHH: EVQLVESGGGLVQAGGSLRLSCATSGQTFSSYAMGWFRQAPGKEREFVAAISWNGGSTYYADSVKGRFTISRESPENLVYLQMNSLKPEDTAVYYCAARGAYYTGSYYLGSTYDYWGQGTQVTVSS
B4 gave a VNA titer [15] of 934 nM, a VNA titer [20] of 273 nM and a VNA titer [18] of 964 nM. It also gave a VNA titer [16] of 815 nM and a VNA titer [19] of 546 nM.

B5: MD2501 (bispecific antibody)
chain: EVQLVESGGGLVQPGGSLRLSCAVSISIFDIYAMDWYRQAPGKQRDLVATSFRDGSTNYADSVKGRFTISRDNAKNTLYLQMNSLKPEDTAVYLCHVSLYRDPLGVAGGMGVYWGKGALVTVSSGGGGSGGGGSEVQLVESGGGLVQPGGSLRLSCAVSISIFDIYAMDWYRQAPGKQRDLVATSFRDGSTNYADSVKGRFTISRDNAKNTLYLQMNSLKPEDTAVYLCHVSLYRDPLGVAGGMGVYWGKGALVTVSSGGGGSGGGGSEVQLVESGGGLVQAGGSLKLSCAASGRTYAMGWFRQAPGKEREFVAHINALGTRTYYSDSVKGRFTISRDNAKNTEYLEMNNLKPEDTAVYYCTAQGQWRAAPVAVAAEYEFWGQGTQVTVSSGGGGSGGGGSEVQLVESGGGLVQPGGSLRLSCAATGFTLENKAIGWFRQTPGSEREGVLCISKSGSWTYYTDSMRGRFTISRDNAENTVYLQMDSLKPEDTAVYYCATTTAGGGLCWDGTTFSRLASSWGQGTQVTVSSGGGGSGGGGSEVQLVESGGGLVQPGGSLKLSCAASGFTFSTSWMYWLRQAPGKGLEWVSVINTDGGTYYADSVKDRFTISRDNAKDTLYLQMSSLKSEDTAVYYCAKDWGGPEPTRGQGTQVTVSS
Work on B5 yielded an average neutralization titer [21] of 15.6 nM, an average neutralization titer [22] of 14.1 nM and an average neutralization titer [23] of 73.8 nM. It also gave an average neutralization titer [24] of 3 nM, an average neutralization titer [25] of 3.9 nM and an average neutralization titer [26] of 14.6 nM. The average neutralization titer [27] was 4 nM, the average neutralization titer [28] was 4.3 nM and the average neutralization titer [29] was 2.9 nM. For the same binder, the average neutralization titer [30] was 11.6 nM, the average neutralization titer [31] was 8.3 nM and the average neutralization titer [32] was 5 nM. It also gave an average neutralization titer [33] of 6.5 nM, an average neutralization titer [34] of 8.8 nM and an average neutralization titer [35] of 1.3 nM. It also gave an average neutralization titer [36] of 14.9 nM, an average neutralization titer [37] of 4.9 nM and an average neutralization titer [38] of 5.7 nM. For the same binder, the average neutralization titer [39] was 3.9 nM, the average neutralization titer [40] was 19.9 nM and the average neutralization titer [41] was 16 nM. The average neutralization titer [42] was 19 nM, the average neutralization titer [43] was 13.8 nM and the average neutralization titer [44] was 9.6 nM. The average neutralization titer [45] was 3 nM, the average neutralization titer [46] was 8.5 nM and the average neutralization titer [47] was 12.6 nM. It also gave an average neutralization titer [48] of 4.8 nM, an average neutralization titer [49] of 14 nM and an average neutralization titer [50] of 16 nM. The average neutralization titer [51] was 16 nM, the average neutralization titer [52] was 18.1 nM and the average neutralization titer [53] was 5.8 nM. It also gave an average neutralization titer [54] of 4.9 nM, an average neutralization titer [55] of 16 nM and an average neutralization titer [56] of 6.5 nM. The average neutralization titer [57] was 36.5 nM and the average neutralization titer [58] was 21.2 nM.
